In publication PMC6212398 (Nature Communications, 2018):

Assays:
Assay in all cases: ITC; peptide (1 mM) titrated into a cell with Hsp27 proteins (100 µM); SEC buffer (50 mM sodium phosphate, 100 mM NaCl); 25 °C; one-site binding model
Conditions in all cases: both partners purified
[1] = biological target: T1, Hsp27 alpha-crystallin domain (ACD, residues Q80–S176) (human, UniProt P04792 80-176)
T1 construct: Human Hsp27 (HSPB1), alpha-crystallin domain, residues Q80–S176; Used 15N-labelled (observed in HSQC) and unlabelled; Vector was a gift of the Klevit laboratory; also called Hsp27 ACD

[2] = biological target: T2, Hsp27 3D (pseudo-phosphorylation mutant S15D, S78D, S82D) (human, UniProt P04792 1-205, S15 replaced with aspartate | S78 replaced with aspartate | S82 replaced with …)
T2 construct: Human Hsp27 (HSPB1) in which three serines (S15, S78 and S82) are replaced with aspartate; Vector was a gift of the Dickey laboratory; Compared throughout with the full-length wild type, so probably the whole protein

[3] = biological target: T3, Hsp27 ΔNTD (residues 80–205) (human, UniProt P04792 80-205)
T3 construct: Human Hsp27 (HSPB1) without the N-terminal domain, residues 80–205; Heterogeneous mixture of 3–5 mers; source: E. coli BL21 (DE3), purified (Ni-NTA, size exclusion)
T3 sequence (P04792 80-205, stated change not applied): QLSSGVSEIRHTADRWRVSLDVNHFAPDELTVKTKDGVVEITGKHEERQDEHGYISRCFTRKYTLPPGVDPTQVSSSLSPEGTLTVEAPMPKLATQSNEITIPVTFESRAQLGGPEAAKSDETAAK

T1 sequence (P04792 80-176): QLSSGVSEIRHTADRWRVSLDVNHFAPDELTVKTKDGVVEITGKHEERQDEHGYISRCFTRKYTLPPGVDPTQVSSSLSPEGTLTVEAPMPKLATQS
T2 sequence (P04792 whole entry S15D/S78D/S82D): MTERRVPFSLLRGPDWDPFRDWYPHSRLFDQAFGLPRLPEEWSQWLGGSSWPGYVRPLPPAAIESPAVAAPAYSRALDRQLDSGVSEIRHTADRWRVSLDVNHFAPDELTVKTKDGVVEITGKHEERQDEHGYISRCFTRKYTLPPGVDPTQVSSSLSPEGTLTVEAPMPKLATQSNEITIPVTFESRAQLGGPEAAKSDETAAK

Row | Kd [1] [µM] | Kd [2] [µM] | Kd [3] [µM] | Binder
1 | > 25 | – | – | EITIPATHE (EITIPATHE. The paper numbers the peptide from E176, so printed Val181 (V of IPV) is UniProt V183. Peptide termini chemistry is not stated.) [Hsp27 IPV H peptide with Val181 mutated to alanine]
2 | > 25 | – | – | EITAPVTHE (EITAPVTHE. The paper numbers the peptide from E176, so printed Ile179 (I of IPV) is UniProt I181. Peptide termini chemistry is not stated.) [Hsp27 IPV H peptide with Ile179 mutated to alanine]
3 | ~5 | – | – | EITIAVTHE (Human Hsp27 (HSPB1) IPV peptide in the His-containing context with the proline of IPV mutated to alanine; source: synthetic peptide, bought: Genescript) [Hsp27 IPV H peptide with the second X residue (Pro) of IXIXV mutated to alanine (EITIAVTHE)]

Further lines, the binder ahead of its results:

Row | Binder | Kd [1] [µM] | Kd [2] [µM] | Kd [3] [µM]
4 | EITIPVTFE (Human Hsp27 (HSPB1), C-terminal IPV (IXI) motif, 9-mer; source: synthetic peptide, bought: Genescript) [Hsp27 IPV peptide (native 9-mer EITIPVTFE)] | > 25 | – | –
5 | EITIPVTHE (Human Hsp27 (HSPB1) IPV 9-mer with the penultimate phenylalanine swapped for histidine (the residue at this position in the motif of BAG3); also called His-containing IPV peptide; chimeric peptide; source: synthetic peptide, bought: Genescript) [Hsp27 IPV H peptide (EITIPVTHE)] | 11.5 | > 50 | 11.4
